Data taken from the Human Domainome abundance scans (Beltran et al. 2025).
± gives the uncertainty stated by the source.

B1: Receptor-interacting serine/threonine-protein kinase 2, residues 438 to 518; numbered along this chain, O43353 (parent)
chain: QWIQSKREDIVNQMTEACLNQSLDALLSRDLIMKEDYELVSTKPTRTSKVRQLLDTTDIQGEEFAKVIVQKLKDNKQMGLQ

Variants of: B1
Test: abundance fitness (aPCA) (normalised: wild type 0, dead -1); higher = more abundant; growth selection in yeast, the domain comes from the species named
Conditions: Homo sapiens

Abundance fitness: each site, then its substitutions
V67: F -0.945 ± 0.24 | E -0.294 ± 0.11 | P -0.562 ± 0.08 | T -0.305 ± 0.086 | G -0.639 ± 0.07 | A -0.674 ± 0.077 | C -0.33 ± 0.14 | M -0.674 ± 0.1 | H -0.396 ± 0.19 | W -0.95 ± 0.15 | Q -0.568 ± 0.12 | L -0.51 ± 0.06 | N -0.651 ± 0.42 | I 0.164 ± 0.14 | D -0.453 ± 0.26 | R -0.854 ± 0.087
I68: E -0.152 ± 0.18 | M -0.201 ± 0.14 | Q -0.554 ± 0.12 | W -0.958 ± 0.16 | C -0.866 ± 0.19 | T -0.345 ± 0.095 | H -0.508 ± 0.082 | A -0.367 ± 0.081 | V -0.147 ± 0.091 | F -0.924 ± 0.21 | P -0.462 ± 0.07 | S -0.491 ± 0.073 | L -0.413 ± 0.077 | K -0.909 ± 0.22 | G -0.497 ± 0.086 | Y -0.568 ± 0.24 | R -0.695 ± 0.07 | N -0.459 ± 0.26
A65: G -0.6 ± 0.058 | F -1.12 ± 0.23 | Y -0.691 ± 0.12 | Q -0.743 ± 0.16 | K -0.708 ± 0.17 | N -0.389 ± 0.18 | R -0.649 ± 0.077 | E -0.456 ± 0.15 | C -0.624 ± 0.12 | P -0.554 ± 0.062 | T -0.85 ± 0.12 | V -0.933 ± 0.1 | D -0.569 ± 0.13 | L -0.949 ± 0.097 | S -0.457 ± 0.062 | H -0.44 ± 0.081
K66: L -0.555 ± 0.062 | I -0.757 ± 0.21 | V -0.702 ± 0.074 | Q -0.135 ± 0.074 | M -0.192 ± 0.14 | E 0.096 ± 0.08 | P -0.471 ± 0.059 | G -0.182 ± 0.042 | N -0.58 ± 0.43 | T -0.187 ± 0.13 | F -1.05 ± 0.47 | Y -0.874 ± 0.42 | H -0.459 ± 0.12 | A -0.172 ± 0.069 | D -0.401 ± 0.2 | R -0.166 ± 0.048
K73: E 0.072 ± 0.099 | D -0.269 ± 0.13 | F -0.609 ± 0.49 | G -0.132 ± 0.056 | A -0.119 ± 0.062
L72: Y -0.695 ± 0.21 | N -0.043 ± 0.33 | V -0.394 ± 0.097 | T -0.448 ± 0.13 | G -0.528 ± 0.07 | P -0.54 ± 0.077 | F -0.072 ± 0.14 | Q -0.451 ± 0.15 | R -0.633 ± 0.12 | C -0.713 ± 0.34 | S -0.587 ± 0.072 | E -0.283 ± 0.12 | M 0.121 ± 0.14 | A -0.865 ± 0.14 | H -0.741 ± 0.2
F64: L -0.295 ± 0.054 | I -0.269 ± 0.23 | P -0.248 ± 0.065 | D -0.17 ± 0.18 | Q -0.156 ± 0.12 | K -0.566 ± 0.19 | Y -0.448 ± 0.17 | R -0.475 ± 0.042 | C 0.112 ± 0.13 | S -0.212 ± 0.053 | M -0.047 ± 0.11 | T -0.142 ± 0.079 | G -0.257 ± 0.054 | A 0.131 ± 0.058 | V -0.236 ± 0.058 | E -0.123 ± 0.11 | W -0.384 ± 0.082
V69: I -0.051 ± 0.16 | G -0.553 ± 0.086 | S -0.57 ± 0.094 | W -0.4 ± 0.067 | E -0.178 ± 0.12 | M 0.003 ± 0.11 | D -0.27 ± 0.2 | N -0.94 ± 0.35 | A -0.384 ± 0.097 | L -0.286 ± 0.093 | Q -0.306 ± 0.085 | Y -0.23 ± 0.17 | F -0.057 ± 0.13 | C -0.159 ± 0.11 | H -0.508 ± 0.25 | K -0.35 ± 0.13
K71: W -1.09 ± 0.34 | A 0.022 ± 0.074 | I -0.122 ± 0.11 | F -0.249 ± 0.15 | H 0.078 ± 0.11 | S 0.028 ± 0.054 | R -0.612 ± 0.05 | N -0.157 ± 0.25 | Y -0.204 ± 0.14 | G -0.281 ± 0.073 | E -0.21 ± 0.11 | C -0.02 ± 0.11 | M -0.113 ± 0.11 | P -0.555 ± 0.087 | L -0.289 ± 0.061 | V 0.151 ± 0.066 | Q -0.086 ± 0.1 | D -0.381 ± 0.12
E63: P -0.432 ± 0.068 | Y -0.839 ± 0.26 | F -0.972 ± 0.18 | C -0.527 ± 0.12 | V -0.592 ± 0.084 | D -0.3 ± 0.22 | T -0.362 ± 0.083 | N -0.646 ± 0.19 | H -0.734 ± 0.18 | Q -0.485 ± 0.28 | G -0.475 ± 0.08 | I -0.538 ± 0.14 | R -0.413 ± 0.062 | K -0.441 ± 0.18 | L -0.684 ± 0.087
E62: Y -0.913 ± 0.25
Q70: N -0.81 ± 0.42 | D -0.206 ± 0.3 | W -0.645 ± 0.16 | V -0.714 ± 0.094 | E 0.08 ± 0.15 | A -0.072 ± 0.058 | Y -0.776 ± 0.39 | P -0.567 ± 0.079 | M -0.436 ± 0.15 | G -0.144 ± 0.065 | S -0.174 ± 0.066 | L -0.687 ± 0.11 | I -0.614 ± 0.42 | H -0.351 ± 0.3
